Test results taken from patent US20060024313.

B1: endogenous DPP-IV purified from human semen (sDPP-IV) (protein)
chain: SRKTYTLTDYLKNTYRLKLYSLRWISDHEYLYKQENNILVFNAEYGNSSVFLENSTFDEFGHSINDYSISPDGQFILLEYNYVKQWRHSYTASYDIYDLNKRQLITEERIPNNTQWVTWSPVGHKLAYVWNNDIYVKIEPNLPSYRITWTGKEDIIYNGITDWVYEEEVFSAYSALWWSPNGTFLAYAQFNDTEVPLIEYSFYSDESLQYPKTVRVPYPKAGAVNPTVKFFVVNTDSLSSVTNATSIQITAPASMLIGDHYLCDVTWATQERISLQWLRRIQNYSVMDICDYDESSGRWNCLVARQHIEMSTTGWVGRFRPSEPHFTLDGNSFYKIISNEEGYRHICYFQIDKKDCTFITKGTWEVIGIEALTSDYLYYISNEYKGMPGGRNLYKIQLSDYTKVTCLSCELNPERCQYYSVSFSKEAKYYQLRCSGPGLPLYTLHSSVNDKGLRVLEDNSALDKMLQNVQMPSKKLDFIILNETKFWYQMILPPHFDKSKKYPLLLDVYAGPCSQKADTVFRLNWATYLASTENIIVASFDGRGSGYQGDKIMHAINRRLGTFEVEDQIEAARQFSKMGFVDNKRIAIWGWSYGGYVTSMVLGSGSGVFKCGIAVAPVSRWEYYDSVYTERYMGLPTPEDNLDHYRNSTVMSRAENFKQVEYLLIHGTADDNVHFQQSAQISKALVDVGVDFQAMWYTDEDHGIASSTAHQHIYTHMSHFIKQCFSLP
B2: recombinant wild-type human DPP-IV (rDPP-IV), amino acids 39 to 766, secreted from baculovirus-infected Hi5 insect cells (protein)
chain: SRKTYTLTDYLKNTYRLKLYSLRWISDHEYLYKQENNILVFNAEYGNSSVFLENSTFDEFGHSINDYSISPDGQFILLEYNYVKQWRHSYTASYDIYDLNKRQLITEERIPNNTQWVTWSPVGHKLAYVWNNDIYVKIEPNLPSYRITWTGKEDIIYNGITDWVYEEEVFSAYSALWWSPNGTFLAYAQFNDTEVPLIEYSFYSDESLQYPKTVRVPYPKAGAVNPTVKFFVVNTDSLSSVTNATSIQITAPASMLIGDHYLCDVTWATQERISLQWLRRIQNYSVMDICDYDESSGRWNCLVARQHIEMSTTGWVGRFRPSEPHFTLDGNSFYKIISNEEGYRHICYFQIDKKDCTFITKGTWEVIGIEALTSDYLYYISNEYKGMPGGRNLYKIQLSDYTKVTCLSCELNPERCQYYSVSFSKEAKYYQLRCSGPGLPLYTLHSSVNDKGLRVLEDNSALDKMLQNVQMPSKKLDFIILNETKFWYQMILPPHFDKSKKYPLLLDVYAGPCSQKADTVFRLNWATYLASTENIIVASFDGRGSGYQGDKIMHAINRRLGTFEVEDQIEAARQFSKMGFVDNKRIAIWGWSYGGYVTSMVLGSGSGVFKCGIAVAPVSRWEYYDSVYTERYMGLPTPEDNLDHYRNSTVMSRAENFKQVEYLLIHGTADDNVHFQQSAQISKALVDVGVDFQAMWYTDEDHGIASSTAHQHIYTHMSHFIKQCFSLP
B3: DPP-IV H750A mutant (protein)
chain: SRKTYTLTDYLKNTYRLKLYSLRWISDHEYLYKQENNILVFNAEYGNSSVFLENSTFDEFGHSINDYSISPDGQFILLEYNYVKQWRHSYTASYDIYDLNKRQLITEERIPNNTQWVTWSPVGHKLAYVWNNDIYVKIEPNLPSYRITWTGKEDIIYNGITDWVYEEEVFSAYSALWWSPNGTFLAYAQFNDTEVPLIEYSFYSDESLQYPKTVRVPYPKAGAVNPTVKFFVVNTDSLSSVTNATSIQITAPASMLIGDHYLCDVTWATQERISLQWLRRIQNYSVMDICDYDESSGRWNCLVARQHIEMSTTGWVGRFRPSEPHFTLDGNSFYKIISNEEGYRHICYFQIDKKDCTFITKGTWEVIGIEALTSDYLYYISNEYKGMPGGRNLYKIQLSDYTKVTCLSCELNPERCQYYSVSFSKEAKYYQLRCSGPGLPLYTLHSSVNDKGLRVLEDNSALDKMLQNVQMPSKKLDFIILNETKFWYQMILPPHFDKSKKYPLLLDVYAGPCSQKADTVFRLNWATYLASTENIIVASFDGRGSGYQGDKIMHAINRRLGTFEVEDQIEAARQFSKMGFVDNKRIAIWGWSYGGYVTSMVLGSGSGVFKCGIAVAPVSRWEYYDSVYTERYMGLPTPEDNLDHYRNSTVMSRAENFKQVEYLLIHGTADDNVHFQQSAQISKALVDVGVDFQAMWYTDEDHGIASSTAHQAIYTHMSHFIKQCFSLP

Molecular target: P27487

How did the “specific activity after serial dilution (H-Gly-Pro-pNA hydrolysis)” value (shortened to “specific activity after serial dilution”) turn out when B1 was run?
Its value is “no decrease in specific activity were observed for either sDPP-IV or rDPP-IV even at a concentration as low as 1.6 nM”.

With B2 as the protein, how does the “specific activity after serial dilution” value read?
Its value is “no decrease in specific activity were observed for either sDPP-IV or rDPP-IV even at a concentration as low as 1.6 nM”.

B3 was tested. Which “specific activity after serial dilution” value did it give?
The value was “the specific activity of H750A protein was also constant over the range of 200 nM to 1.6 nM”.
